Results on seven molecules are retold here after patent publication US20210380703A1 (RIGEL PHARMACEUTICALS, published 2021).

In one assay the target is mouse ACVR2A (mouse, UniProt P27038 20-135, limits assumed). Briefly: ELISA. The essentials: (§1)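 ELISA measured binding of ACVR2A-specific monoclonal antibodies to human and mouse ACVR2A. Biotinylated goat anti-human kappa light chain served as positive control and human Fc as negative control.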
The target of another assay is human ACVR2A (human, UniProt P27037 20-135, limits assumed). The assay can be described thus: ELISA. Summed up:
as §1
For orientation: An ELISA detects its analyte on a solid surface through an enzyme-linked reagent.

Assay [1] has as its target T1, biotinylated goat anti-human kappa light chain.
T1 construct: Positive control of the ELISA
Briefly: ELISA; positive control. The essentials:
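Monoclonal antibodies were first applied to human or mouse ACVR2A, alongside biotinylated goat anti-human kappa light chain (positive control) and human Fc (negative control); binding was then determined by ELISA.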
Further: test concentration or dose not given here.

Sequence of human ACVR2A (P27037 20-135 limits assumed): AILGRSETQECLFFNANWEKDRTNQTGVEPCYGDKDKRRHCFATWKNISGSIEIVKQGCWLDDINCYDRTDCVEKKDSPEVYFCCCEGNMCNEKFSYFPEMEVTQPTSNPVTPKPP
Sequence of mouse ACVR2A (P27038 20-135 limits assumed): as the sequence (P27037 20-135 limits assumed) above, with K20R, V73I counted along it

B1: 369_E10 (antibody, V domains shown)
VH: EVQLLESGGGLVQPGGSLRLSCAASGFTFSSYSMNWVRQAPGKGLEWVSNINYNGGYKSYADSVKGRFTISRDNSKNTLYLQMNSLRAEDTAVYYCARSATWHDTALDYWGQGTLVTVSS
VL: DIQMTQSPSSLSASVGDRVTITCRASQSILSYVNWYQQKPGKAPKLVIYAATSRASGVPSRFSGSGSGTDFTLTISSLQPEDFATYYCQQSYDLPLTFGGGTKVEIK
notes: VH/VL only
As to B1, the optical density with mouse ACVR2A is 3.53 OD; with human ACVR2A it was 3.36 OD; in assay [1], 3.59 OD.

B2: 370_B05 (antibody, V domains shown)
VH: EVQLLESGGGLVQPGGSLRLSCAASGFTFSSYGMNWVRQAPGKGLEWVASINYNGGYTSYADSVKGRFTISRDNSKNTLYLQMNSLRAEDTAVYYCARSATWHDTHLDYWGQGTLVTVSS
VL: DIQMTQSPSSLSASVGDRVTITCRASQSILTYVNWYQQKPGKAPKLVIYAATSRASGVPSRFSGSGSGTDFTLTISSLQPEDFATYYCQQSYENPLTFGGGTKVEIK
notes: VH/VL only
Consider B2, for which the optical density with mouse ACVR2A is 3.11 OD; with human ACVR2A it was 2.84 OD; in assay [1], 3.49 OD.

B3: 370_C04 (antibody, V domains shown)
VH: EVQLLESGGGLVQPGGSLRLSCAASGFTFSSYGMNWVRQAPGKGLEWVASINYNSGYTSYADSVKGRFTISRDNSKNTLYLQMNSLRAEDTAVYYCARSATWHDTHLDYWGQGTLVTVSS
VL: DIQMTQSPSSLSASVGDRVTITCRASQSILSYLNWYQQKPGKAPKLLIYAASSLQSGVPSRFSGSGSGTDFTLTISSLQPEDFATYYCQQSYENPLTFGGGTKVEIK
notes: VH/VL only
Regarding B3, the optical density in the assay with mouse ACVR2A is 2.63 OD; in the assay with human ACVR2A, 2.32 OD; in assay [1], 3.6 OD.

B4: 369_G07 (antibody, V domains shown)
VH: EVQLLESGGGLVQPGGSLRLSCAASGFTFSSYSMNWVRQAPGKGLEWVAGINYNGGYTSYADSVKGRFTISRDNSKNTLYLQMNSLRAEDTAVYYCARSATWHDTHLDYWGQGTLVTVSS
VL: DIQMTQSPSSLSASVGDRVTITCRASQSILTYVNWYQQKPGKAPKLVIYAATSRASGVPSRFSGSGSGTDFTLTISSLQPEDFATYYCQQSYDNPLTFGGGTKVEIK
notes: VH/VL only
Take B4: the optical density in the assay with mouse ACVR2A was 3.37 OD; in the assay with human ACVR2A, 3.32 OD; in assay [1], 2.98 OD.

B5: 370_A06 (antibody, V domains shown)
VH: EVQLLESGGGLVQPGGSLRLSCAASGFTFSSYSMNWVRQAPGKGLEWVASINYNSGYKSYADSVKGRFTISRDNSKNTLYLQMNSLRAEDTAVYYCARSATWHDTHLDYWGQGTLVTVSS
VL: DIQMTQSPSSLSASVGDRVTITCRASQSIVTYLNWYQQKPGKAPKLVIYAATSLASGVPSRFSGSGSGTDFTLTISSLQPEDFATYYCQQSYDLPLTFGGGTKVEIK
notes: VH/VL only
For the molecule B5, the figures for the optical density (with mouse ACVR2A; with human ACVR2A; in assay [1]) were 2.77 OD, 2.59 OD and 3.47 OD, respectively.

B6: 369_F07 (antibody, V domains shown)
VH: EVQLLESGGGLVQPGGSLRLSCAASGFTFDSYSMNWVRQAPGKGLEWVAGINYNGGYKSYADSVKGRFTISRDNSKNTLYLQMNSLRAEDTAVYYCARSATWHDTHLDYWGQGTLVTVSS
VL: DIQMTQSPSSLSASVGDRVTITCRASQSILSYVNWYQQKPGKAPKLVIYAATSRASGVPSRFSGSGSGTDFTLTISSLQPEDFATYYCQQSYESPLTFGGGTKVEIK
notes: VH/VL only
With B6, the results for the optical density (in the assay with mouse ACVR2A; with human ACVR2A; in assay [1]) were 3.43 OD, 3.43 OD and 3.47 OD, respectively.

B7: 369_F12 (antibody, V domains shown)
VH: EVQLLESGGGLVQPGGSLRLSCAASGFTFSSYSMNWVRQAPGKGLEWVASINYNSGYKSYADSVKGRFTISRDNSKNTLYLQMNSLRAEDTAVYYCARSATWHDTHLDYWGQGTLVTVSS
VL: DIQMTQSPSSLSASVGDRVTITCRASQSIISYLNWYQQKPGKAPKLLIYAVTSLASGVPSRFSGSGSGTDFTLTISSLQPEDFATYYCQQSYENPLTFGGGTKVEIK
notes: VH/VL only
For B7, the optical density with mouse ACVR2A is 2.82 OD; in the assay with human ACVR2A it was 2.73 OD; in assay [1], 3.6 OD.
